Assay results as given in patent US20210238292A1 (VACCINEX, published 2021).
Read-outs that look alike come from different tables or passages of the source. Values belong to the binder of their own block, whether it stands above or below them.

Legend:
Cynomolgus CCR8-ECD-Fc [1] = target: T1, Cynomolgus CCR8-ECD-Fc (cynomolgus monkey); assay: binding to CyCCR8-ECD-Fc protein, OD450-570 nm
T1 construct: also called CyCCR8-ECD-Fc; Cynomolgus CCR8-Fc
T1 chain: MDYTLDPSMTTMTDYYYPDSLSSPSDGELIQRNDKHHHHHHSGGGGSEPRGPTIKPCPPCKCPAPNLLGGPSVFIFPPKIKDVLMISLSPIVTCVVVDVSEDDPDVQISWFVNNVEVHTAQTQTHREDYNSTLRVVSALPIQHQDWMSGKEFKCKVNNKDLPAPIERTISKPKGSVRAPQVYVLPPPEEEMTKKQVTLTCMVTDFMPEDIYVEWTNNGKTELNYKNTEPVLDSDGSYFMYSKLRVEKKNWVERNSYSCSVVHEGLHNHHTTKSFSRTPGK

Human CCR8-ECD-Fc [2] = target: T2, Human CCR8-ECD-Fc (human); assay: binding to HuCCR8-ECD-Fc protein, OD450-570 nm
T2 construct: also called HuCCR8-ECD-Fc; huCC8-ECD-Fc
T2 chain: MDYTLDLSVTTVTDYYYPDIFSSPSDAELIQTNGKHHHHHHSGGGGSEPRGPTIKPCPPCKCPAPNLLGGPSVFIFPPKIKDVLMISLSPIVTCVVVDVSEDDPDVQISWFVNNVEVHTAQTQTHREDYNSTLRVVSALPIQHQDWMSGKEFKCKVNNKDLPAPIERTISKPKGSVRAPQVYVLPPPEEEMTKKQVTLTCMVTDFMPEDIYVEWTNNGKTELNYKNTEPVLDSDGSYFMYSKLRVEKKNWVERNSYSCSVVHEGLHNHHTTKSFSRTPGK

[3] = target: T3, cynomolgus monkey CCR8 expressed on cells (cynomolgus monkey, UniProt G7NYJ2 1-355); assay: on-cell affinity, flow cytometry on 293T cells expressing cyno CCR8
T3 construct: whole, on cells; also called cyno CCR8; CyCCR8

[4] = target: T4, human CCR8 (C-C chemokine receptor type 8) expressed on cells (human, UniProt P51685 1-355); assay: on-cell affinity, flow cytometry on 293T cells expressing human CCR8
T4 construct: also called HuCCR8
T4 sequence (P51685 whole entry): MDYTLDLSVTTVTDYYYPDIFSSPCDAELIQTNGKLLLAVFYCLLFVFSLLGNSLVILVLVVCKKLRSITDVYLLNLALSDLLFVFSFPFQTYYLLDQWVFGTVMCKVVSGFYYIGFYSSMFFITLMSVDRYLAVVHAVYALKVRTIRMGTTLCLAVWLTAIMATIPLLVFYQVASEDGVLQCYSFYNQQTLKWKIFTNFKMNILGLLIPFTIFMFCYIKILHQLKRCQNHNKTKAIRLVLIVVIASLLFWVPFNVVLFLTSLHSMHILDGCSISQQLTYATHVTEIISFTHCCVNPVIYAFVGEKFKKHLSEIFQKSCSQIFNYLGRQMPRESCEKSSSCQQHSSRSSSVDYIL

[5] = target: T5, mouse CCR8 expressed on 293T cells (mouse, UniProt P56484 1-353); assay: flow cytometry, MoCCR8-293T cells, fold geomean over secondary alone
T5 construct: whole, on cells
T5 sequence (looked up): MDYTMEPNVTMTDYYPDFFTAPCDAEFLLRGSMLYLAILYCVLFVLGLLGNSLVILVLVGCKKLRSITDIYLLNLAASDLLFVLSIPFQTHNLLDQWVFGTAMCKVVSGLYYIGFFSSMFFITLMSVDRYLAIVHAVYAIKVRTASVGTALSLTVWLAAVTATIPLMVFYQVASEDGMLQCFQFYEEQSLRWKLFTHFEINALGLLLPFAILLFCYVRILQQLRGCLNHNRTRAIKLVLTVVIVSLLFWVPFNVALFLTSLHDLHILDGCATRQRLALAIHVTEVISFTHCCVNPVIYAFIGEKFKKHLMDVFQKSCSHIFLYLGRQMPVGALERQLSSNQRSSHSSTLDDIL

[6] = target: T3, cynomolgus monkey CCR8 expressed on …; assay: flow cytometry, CynoCCR8-293T cells, fold geomean over secondary alone
[7] = target: T3, cynomolgus monkey CCR8 expressed on …; assay: on-cell affinity, flow cytometry on 293T cells expressing cyno CCR8; remark: listed apart in the source
Target sequence in this assay (G7NYJ2 entry or part of it): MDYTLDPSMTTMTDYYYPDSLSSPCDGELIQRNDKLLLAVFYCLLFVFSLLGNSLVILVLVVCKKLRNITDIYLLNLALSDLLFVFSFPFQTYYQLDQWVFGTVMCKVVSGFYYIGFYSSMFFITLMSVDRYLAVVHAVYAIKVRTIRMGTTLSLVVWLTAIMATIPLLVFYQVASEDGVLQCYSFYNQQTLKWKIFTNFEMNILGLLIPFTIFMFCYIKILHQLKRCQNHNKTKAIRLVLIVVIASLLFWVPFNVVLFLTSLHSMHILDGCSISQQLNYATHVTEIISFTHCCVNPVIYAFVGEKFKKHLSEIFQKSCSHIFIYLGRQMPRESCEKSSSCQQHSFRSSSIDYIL

[8] = target: T4, human CCR8 (C-C chemokine receptor type …); assay: on-cell affinity, flow cytometry on 293T cells expressing human CCR8; remark: listed apart in the source
[9] = target: T5, mouse CCR8 expressed on 293T cells; assay: flow cytometry, mouseCCR8-293T cells, fold geomean over secondary alone
Cynomolgus CCR8-ECD-Fc [10] = target: T1, Cynomolgus CCR8-ECD-Fc; assay: binding to CyCCR8-ECD-huFc protein (so in the source), OD45-570nm (so in the source)
Human CCR8-ECD-Fc [11] = target: T2, Human CCR8-ECD-Fc; assay: binding to HuCCR8-ECD-moFc protein (so in the source), OD45-570nm (so in the source)
Cynomolgus CCR8-ECD-Fc [12] = target: T1, Cynomolgus CCR8-ECD-Fc; assay: binding to CyCCR8-ECD-Fc protein, OD450-570 nm
Human CCR8-ECD-Fc [13] = target: T2, Human CCR8-ECD-Fc; assay: binding to HuCCR8-ECD-Fc protein, OD450-570 nm
[14] = target: T5, mouse CCR8 expressed on 293T cells; assay: flow cytometry, MoCCR8-293T cells, fold geomean over secondary alone; remark: listed apart in the source
Human CCR8-ECD-Fc [15] = target: T2, Human CCR8-ECD-Fc; assay: binding to HuCCR8-ECD-Fc protein, OD450-570nm
Cynomolgus CCR8-ECD-Fc [16] = target: T1, Cynomolgus CCR8-ECD-Fc; assay: binding to CynoCCR8-ECD-Fc protein, OD450-570nm
[17] = target: T3, cynomolgus monkey CCR8 expressed on …; assay: on-cell affinity, flow cytometry on 293T cells expressing cyno CCR8; remark: listed apart in the source
Target sequence in this assay (G7NYJ2 entry or part of it): as above

[18] = target: T4, human CCR8 (C-C chemokine receptor type …); assay: on-cell affinity, flow cytometry on 293T cells expressing human CCR8; remark: listed apart in the source
[19] = target: T4, human CCR8 (C-C chemokine receptor type …); assay: flow cytometry, HuCCR8-293T cells, fold geomean over secondary alone
[20] = target: T5, mouse CCR8 expressed on 293T cells; assay: flow cytometry, MoCCR8-293T cells, fold geomean over secondary alone; remark: listed apart in the source
Cynomolgus CCR8-ECD-Fc [21] = target: T1, Cynomolgus CCR8-ECD-Fc; assay: binding to CyCCR8-ECD-Fc protein, OD450-570 nm
Human CCR8-ECD-Fc [22] = target: T2, Human CCR8-ECD-Fc; assay: binding to HuCCR8-ECD-Fc protein, OD450-570 nm
[23] = target: T5, mouse CCR8 expressed on 293T cells; assay: flow cytometry, MoCCR8-293T cells, fold geomean over secondary alone; remark: listed apart in the source

- EC50 (read off the curve) (Human CCR8-ECD-Fc [15]): ~0.04 µg/mL
- EC50 (read off the curve) (Cynomolgus CCR8-ECD-Fc [16]): ~0.04 µg/mL
- Kd [17]: 4.5 nM
- Kd [18]: 1.5 nM
- EC50 (read off the curve) [19]: ~2 µg/mL
- binding result [20]: no binding (tested: 10 ug/ml)
B4: anti-CCR8-2-6 (antibody, V domains shown)
VH: EVQLVESGGGLVQPGRSLRLSCAASGFTFDDYAMHWVRQAPGKGLEWVSGISWNSGSIGYADSVKGRFTISRDNSKNSLYLQMNSLRAEDTALYYCARGRVSYRESLRFDYWGQGTLVT
VL: QSVLTQPPSVSAAPGQKVTISCSGSSSNIGNNYVSWYQQLPGTAPKLLIYDNNKRPSGIPDRFSGSKSGTSATLGITGLQTGDEADYYCGTWDSSLSAWVFGGGTKLT
notes: Human IgG

- binding result (Cynomolgus CCR8-ECD-Fc [21]): binds
- binding result (Human CCR8-ECD-Fc [22]): binds
- Kd [3]: 1.09 nM
- Kd [4]: 0.54 nM
- binding result [23]: no binding (tested: 10 ug/ml)
B5: anti-CCR8-2-1 (antibody, V domains shown)
VH: EVQLLESGGGLVQPGGSLRLSCAARGFIFSGYTMLWVRQAPGKGLEWVSAITASGGRTYYADSVKGRFTISRDNSKNTLYLQMNSLRAEDTAVYYCARRFARGWFDPWGQGTLVTVSS
VL: QSVLTQPPSVSAAPGQKVTISCSGSSSNIGNNYVSWYQQLPGTAPKLLIYDNNKRPSGIPDRFSGSKSGTSATLGITGLQTGDEADYYCGTWDSSLSAWVFGGGTKLT
notes: Human IgG from a mammalian expression vector

Continued, binder first:

B1: anti-CCR8-2-2 (antibody, V domains shown)
VH: EVQLLESGGGLVQPGGSLRLSCAAGGFTFSAYTMNWVRQAPGKGLEWVSAISASGGRTYYADSVKGRFTISRDNSKNTLYLQMNSLRAEDTAVYYCARRFARGWFDPWGQGTLVT
VL: QSVLTQPPSVSAAPGQRVTISCSGSTSNIGNHYVSWYQQLPRAVPKLVIYDNDKRPSGISDRFSGSRSGTSATLDISGLQAGDEADYYCATWDYSLTAVVFGGGTKLTVL
notes: Heavy chain of anti-CCR8-2 (H23727) cross-paired with a shuffled lambda light chain; Human IgG
- binding result (Cynomolgus CCR8-ECD-Fc [1]): binds
- binding result (Human CCR8-ECD-Fc [2]): binds
- Kd [3]: 1.6 nM
- Kd [4]: 0.8 nM
- binding result [5]: no binding (tested: 10 ug/ml)
- EC50 (read off the curve) [6]: ~1 µg/mL

B2: anti-CCR8-1-5 (antibody, V domains shown)
VH: QVQLVQSGAEVKKPGASVKVSCKASGYTFTSYYMHWVRQAPGQGLEWMGIINPSGGSTSYAQKFQGRVTMTRDTSTSTVYMELSSLRSEDTAVYYCARGVGNGFRFDYWGQGTLVT
VL: QSALTQPPSVSGSPGQSITISCSGTSSDVGSYNLVSWYQQEPGKAPKLIIYEVNKRPSGVSNRFSGSKSGNTASLTISGLQAEDEADYHCSSYAGSSTYVVFGGGTKLTVL
notes: Parental-1 heavy chain with a shuffled lambda light chain; Human IgG expressed in CHO cells
- Kd [7]: 48.6 nM
- Kd [8]: 1.36 nM
- binding result [9]: no binding (tested: 10 ug/ml)
- binding result (Cynomolgus CCR8-ECD-Fc [10]): binds
- binding result (Human CCR8-ECD-Fc [11]): binds

B3: anti-CCR8-2 (antibody, V domains shown)
VH: EVQLLESGGGLVQPGGSLRLSCAAGGFTFSAYTMNWVRQAPGKGLEWVSAISASGGRTYYADSVKGRFTISRDNSKNTLYLQMNSLRAEDTAVYYCARRFARGWFDPWGQGTLVTVSS
VL: QSVLTQPPSVSAAPGQKVTISCSGSSSNIGNNYVSWYQQLPGTAPKLLIYDNNKRPSGIPDRFSGSKSGTSATLGITGLQTGDEADYYCGTWDSSLSAWVFGGGTKLT
notes: Cloned into mammalian expression vectors; human IgG; also called heavy chain H23727
- binding result (Cynomolgus CCR8-ECD-Fc [12]): binds
- binding result (Human CCR8-ECD-Fc [13]): binds
- Kd [3]: 0.94 nM
- Kd [4]: 0.41 nM
- binding result [14]: no binding (tested: 10 ug/ml)
